{"source": "paper PMC5161677", "binders": {"B1": {"name": "G1 DnaA box dsDNA (dsDNA)", "DNA 1": "AACGGATGATCCACAGGAGAG", "DNA 2": "CTCTCCTGTGGATCATCCGTT"}}, "key": {"DnaA R357A": {"target": "T1, DnaA R357A (Caulobacter crescentus, UniProt B8GWW5 1-490, R357A)", "T1 sequence": "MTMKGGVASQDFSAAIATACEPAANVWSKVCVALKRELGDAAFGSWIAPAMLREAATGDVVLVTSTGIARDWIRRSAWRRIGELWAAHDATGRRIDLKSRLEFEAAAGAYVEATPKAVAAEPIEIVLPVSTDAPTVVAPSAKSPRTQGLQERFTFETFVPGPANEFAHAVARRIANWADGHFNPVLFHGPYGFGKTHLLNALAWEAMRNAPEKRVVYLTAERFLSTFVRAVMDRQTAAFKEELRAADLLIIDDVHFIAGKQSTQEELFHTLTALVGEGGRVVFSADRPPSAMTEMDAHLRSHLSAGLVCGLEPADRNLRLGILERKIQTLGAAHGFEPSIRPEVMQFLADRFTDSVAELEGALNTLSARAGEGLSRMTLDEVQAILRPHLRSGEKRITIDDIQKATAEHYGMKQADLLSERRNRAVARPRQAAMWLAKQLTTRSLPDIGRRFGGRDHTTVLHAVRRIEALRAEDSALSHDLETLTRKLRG", "experiment": "EMSA"}, "DnaA": {"target": "T2, DnaA (Caulobacter crescentus, UniProt B8GWW5 1-490)", "T2 sequence": "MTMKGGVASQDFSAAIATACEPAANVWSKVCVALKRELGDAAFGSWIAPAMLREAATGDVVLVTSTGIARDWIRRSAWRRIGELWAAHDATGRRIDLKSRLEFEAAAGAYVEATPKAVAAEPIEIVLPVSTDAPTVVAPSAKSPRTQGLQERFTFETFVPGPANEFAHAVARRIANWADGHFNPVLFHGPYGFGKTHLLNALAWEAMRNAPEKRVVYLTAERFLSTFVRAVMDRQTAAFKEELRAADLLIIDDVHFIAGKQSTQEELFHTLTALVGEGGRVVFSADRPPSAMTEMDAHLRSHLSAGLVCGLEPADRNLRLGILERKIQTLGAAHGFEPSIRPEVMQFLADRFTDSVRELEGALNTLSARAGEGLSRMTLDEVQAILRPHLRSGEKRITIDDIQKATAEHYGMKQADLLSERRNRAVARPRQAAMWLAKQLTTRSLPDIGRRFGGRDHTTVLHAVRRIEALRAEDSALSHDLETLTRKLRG", "experiment": "EMSA"}}}
{"binder": "B1", "values": [{"measurement": "binding result", "setting": "DnaA R357A", "value": "binds"}, {"measurement": "binding result", "setting": "DnaA", "value": "binds"}]}
